The target in one test is T1, CD137 (human, UniProt Q07011 24-186).
T1 construct: Whole on GS-H2-huCD137 reporter cells in the reporter assays; also called 4-1BB
Nature of the test: FCM or ELISA, graded.

A further test has as its target T2, CD19 (human, UniProt P15391 20-556).
T2 construct: whole, on cells
T2 sequence (looked up): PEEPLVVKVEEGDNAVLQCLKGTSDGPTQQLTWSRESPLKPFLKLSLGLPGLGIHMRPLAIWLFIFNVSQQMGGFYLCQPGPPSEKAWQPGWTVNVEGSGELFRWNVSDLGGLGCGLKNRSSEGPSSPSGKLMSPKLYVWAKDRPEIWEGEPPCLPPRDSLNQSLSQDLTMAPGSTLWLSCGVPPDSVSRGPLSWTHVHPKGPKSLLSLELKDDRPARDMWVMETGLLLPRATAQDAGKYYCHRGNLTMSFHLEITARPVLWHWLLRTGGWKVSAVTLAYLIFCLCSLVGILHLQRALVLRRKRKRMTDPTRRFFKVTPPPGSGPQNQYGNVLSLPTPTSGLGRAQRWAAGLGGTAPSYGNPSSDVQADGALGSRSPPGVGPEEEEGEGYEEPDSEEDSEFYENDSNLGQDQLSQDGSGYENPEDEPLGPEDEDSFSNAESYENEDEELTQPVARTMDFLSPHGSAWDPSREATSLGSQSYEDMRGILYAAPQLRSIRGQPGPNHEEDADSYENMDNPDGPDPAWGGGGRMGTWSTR
Nature of the test: CHO cells overexpressing CD19, graded.

Data on three molecules can be found in patent EP4803150A2 (Lyvgen Biopharma Holdings Limited, dated 2026).

B1: Ly2802 (multi-specific antibody)
chain 1: QVQLQQSGAELVRPGSSVKISCKASGYAFSSYWMNWVKQRPGQGLEWIGQIWPGDGDTNYNGKFKGKATLTADESSSTAYMQLSSLASEDSAVYFCARRETTTVGRYYYAMDYWGQGTTVTVSSASVAAPSVFIFPPSDEQLKSGTASVVCLLNNFYPREAKVQWKVDNALQSGNSQESVTEQDSKDSTYSLSSTLTLSKADYEKHKVYACEVTHQGLSSPVTKSFNRGECGGGGSGGGGSGGGGSGGGGSEVQLVESGGGLVQPGGSLRLSCAASGFTFSTYAMNWVRQAPGKGLEWVGRIRSKYNNYATYYADSVKGRFTISRDDSKNSLYLQMNSLKTEDTAVYYCVRHGNFGNSYVSWFAYWGQGTLVTVSSGGGGSDKTHTCPPCPAPELLGPSVFLFPPKPKDTLMISRTPEVTCVVVDVSHEDPEVKFNWYVDGVEVHNAKTKPREEQYNSTYRVVSVLTVLHQDWLNGKEYKCKVSNKALGAPIEKTISKAKGQPREPQVYTLPPSREEMTKNQVSLWCLVKGFYPSDIAVEWESNGQPENNYKTTPPVLDSDGSFFLYSKLTVDKSRWQQGNVFSCSVMHEALHNHYTQKSLSLSPGKGGGGSGGGGSGGGGSGGGGSQVQLVQSGAEVKKPGASVKVSCKASGYTFAGFEMHWVRQAPGQGLEWMGAIDPKTGGTDYNQKFKDRVTMTRDTSISTAYMELSRLRSDDTAVYYCARDLGYFDVWGQGTLVTVSS
chain 2: QVQLQQPGAELVKPGASVKMSCKASGYTFTSYNMHWVKQTPGRGLEWIGAIYPGNGDTSYNQKFKGKATLTADKSSSTAYMQLSSLTSEDSAVYYCARSTYYGGDWYFNVWGAGTTVTVSAASTKGPSVFPLAPSSKSTSGGTAALGCLVKDYFPEPVTVSWNSGALTSGVHTFPAVLQSSGLYSLSSVVTVPSSSLGTQTYICNVNHKPSNTKVDKKVEPKSCGGGGSGGGGSGGGGSGGGGSQAVVTQEPSLTVSPGGTVTLTCRSSTGAVTTSNYANWVQQKPGQAPRGLIGGTNKRAPWTPARFSGSLLGGKAALTITGAQAEDEADYYCALWYSNLWVFGGGTKLTVLGGGGSDKTHTCPPCPAPELLGPSVFLFPPKPKDTLMISRTPEVTCVVVDVSHEDPEVKFNWYVDGVEVHNAKTKPREEQYNSTYRVVSVLTVLHQDWLNGKEYKCKVSNKALGAPIEKTISKAKGQPREPQVYTLPPSREEMTKNQVSLSCAVKGFYPSDIAVEWESNGQPENNYKTTPPVLDSDGSFFLVSKLTVDKSRWQQGNVFSCSVMHEALHNHYTQKSLSLSPGKGGGGSGGGGSGGGGSGGGGSDIQMTQSPSSLSASVGDRVTITCRASQDIRSNLNWYQQKPGGAVKLLIYYTSRLHSGVPSRFSGSGSGTDYTLTISSLQPEDFATYFCQQSEKLPRTFGGGTKVEIR
chain 3: DIQLTQSPASLAVSLGQRATISCKASQSVDYDGDSYLNWYQQIPGQPPKLLIYDASNLVSGIPPRFSGSGSGTDFTLNIHPVEKVDAATYHCQQSTEDPWTFGGGTKLEIKSSASTKGPSVFPLAPSSKSTSGGTAALGCLVKDYFPEPVTVSWNSGALTSGVHTFPAVLQSSGLYSLSSVVTVPSSSLGTQTYICNVNHKPSNTKVDKKVEPKSC
chain 4: QIVLSQSPAILSASPGEKVTMTCRASSSVSYIHWFQQKPGSSPKPWIYATSNLASGVPVRFSGSGSGTSYSLTISRVEAEDAATYYCQQWTSNPPTFGGGTKLEIKRTVAAPSVFIFPPSDEQLKSGTASVVCLLNNFYPREAKVQWKVDNALQSGNSQESVTEQDSKDSTYSLSSTLTLSKADYEKHKVYACEVTHQGLSSPVTKSFNRGEC
notes: CD19/CD20/CD3/CD137
For B1, the binding result in the test with CD137 and with CD19 was “binds” in each case.

B2: Ly2800 (multi-specific antibody)
chain 1: QVQLQQPGAELVKPGASVKMSCKASGYTFTSYNMHWVKQTPGRGLEWIGAIYPGNGDTSYNQKFKGKATLTADKSSSTAYMQLSSLTSEDSAVYYCARSTYYGGDWYFNVWGAGTTVTVSAASVAAPSVFIFPPSDEQLKSGTASVVCLLNNFYPREAKVQWKVDNALQSGNSQESVTEQDSKDSTYSLSSTLTLSKADYEKHKVYACEVTHQGLSSPVTKSFNRGECGGGGSGGGGSGGGGSGGGGSEVQLVESGGGLVQPGGSLRLSCAASGFTFSTYAMNWVRQAPGKGLEWVGRIRSKYNNYATYYADSVKGRFTISRDDSKNSLYLQMNSLKTEDTAVYYCVRHGNFGNSYVSWFAYWGQGTLVTVSSGGGGSDKTHTCPPCPAPELLGPSVFLFPPKPKDTLMISRTPEVTCVVVDVSHEDPEVKFNWYVDGVEVHNAKTKPREEQYNSTYRVVSVLTVLHQDWLNGKEYKCKVSNKALGAPIEKTISKAKGQPREPQVYTLPPSREEMTKNQVSLWCLVKGFYPSDIAVEWESNGQPENNYKTTPPVLDSDGSFFLYSKLTVDKSRWQQGNVFSCSVMHEALHNHYTQKSLSLSPGKGGGGSGGGGSGGGGSGGGGSQVQLVQSGAEVKKPGASVKVSCKASGYTFAGFEMHWVRQAPGQGLEWMGAIDPKTGGTDYNQKFKDRVTMTRDTSISTAYMELSRLRSDDTAVYYCARDLGYFDVWGQGTLVTVSS
chain 2: QVQLQQSGAELVRPGSSVKISCKASGYAFSSYWMNWVKQRPGQGLEWIGQIWPGDGDTNYNGKFKGKATLTADESSSTAYMQLSSLASEDSAVYFCARRETTTVGRYYYAMDYWGQGTTVTVSSASTKGPSVFPLAPSSKSTSGGTAALGCLVKDYFPEPVTVSWNSGALTSGVHTFPAVLQSSGLYSLSSVVTVPSSSLGTQTYICNVNHKPSNTKVDKKVEPKSCGGGGSGGGGSGGGGSGGGGSQAVVTQEPSLTVSPGGTVTLTCRSSTGAVTTSNYANWVQQKPGQAPRGLIGGTNKRAPWTPARFSGSLLGGKAALTITGAQAEDEADYYCALWYSNLWVFGGGTKLTVLGGGGSDKTHTCPPCPAPELLGPSVFLFPPKPKDTLMISRTPEVTCVVVDVSHEDPEVKFNWYVDGVEVHNAKTKPREEQYNSTYRVVSVLTVLHQDWLNGKEYKCKVSNKALGAPIEKTISKAKGQPREPQVYTLPPSREEMTKNQVSLSCAVKGFYPSDIAVEWESNGQPENNYKTTPPVLDSDGSFFLVSKLTVDKSRWQQGNVFSCSVMHEALHNHYTQKSLSLSPGKGGGGSGGGGSGGGGSGGGGSDIQMTQSPSSLSASVGDRVTITCRASQDIRSNLNWYQQKPGGAVKLLIYYTSRLHSGVPSRFSGSGSGTDYTLTISSLQPEDFATYFCQQSEKLPRTFGGGTKVEIR
chain 3: QIVLSQSPAILSASPGEKVTMTCRASSSVSYIHWFQQKPGSSPKPWIYATSNLASGVPVRFSGSGSGTSYSLTISRVEAEDAATYYCQQWTSNPPTFGGGTKLEIKSSASTKGPSVFPLAPSSKSTSGGTAALGCLVKDYFPEPVTVSWNSGALTSGVHTFPAVLQSSGLYSLSSVVTVPSSSLGTQTYICNVNHKPSNTKVDKKVEPKSC
chain 4: not shown
notes: CD19/CD20/CD3/CD137
For the molecule B2, the binding result with CD137 and in the test with CD19 was “binds” each time.

B3: Ly2943 (multi-specific antibody)
chain 1: QVQLQQPGAELVKPGASVKMSCKASGYTFTSYNMHWVKQTPGRGLEWIGAIYPGNGDTSYNQKFKGKATLTADKSSSTAYMQLSSLTSEDSAVYYCARSTYYGGDWYFNVWGAGTTVTVSAASVAAPSVFIFPPSDEQLKSGTASVVCLLNNFYPREAKVQWKVDNALQSGNSQESVTEQDSKDSTYSLSSTLTLSKADYEKHKVYACEVTHQGLSSPVTKSFNRGECGGGGSGGGGSGGGGSGGGGSEVQLVESGGGLVQPGGSLRLSCAASGFTFSTYAMNWVRQAPGKGLEWVGRIRSKYNNYATYYADSVKGRFTISRDDSKNSLYLQMNSLKTEDTAVYYCVRHGNFGNSYVSWFAYWGQGTLVTVSSGGGGSDKTHTCPPCPAPELLGPSVFLFPPKPKDTLMISRTPEVTCVVVDVSHEDPEVKFNWYVDGVEVHNAKTKPREEQYNSTYRVVSVLTVLHQDWLNGKEYKCKVSNKALGAPIEKTISKAKGQPREPQVYTLPPSREEMTKNQVSLWCLVKGFYPSDIAVEWESNGQPENNYKTTPPVLDSDGSFFLYSKLTVDKSRWQQGNVFSCSVMHEALHNHYTQKSLSLSPGKGGGGSGGGGSGGGGSGGGGSQVQLVQSGAEVKKPGASVKVSCKASGYTFAGFEMHWVRQAPGQGLEWMGAIDPKTGGTDYNQKFKDRVTMTRDTSISTAYMELSRLRSDDTAVYYCARDLGYFDVWGQGTLVTVSS
chain 2: QVQLQQSGAELVRPGSSVKISCKASGYAFSSYWMNWVKQRPGQGLEWIGQIWPGDGDTNYNGKFKGKATLTADESSSTAYMQLSSLASEDSAVYFCARRETTTVGRYYYAMDYWGQGTTVTVSSASTKGPSVFPLAPSSKSTSGGTAALGCLVKDYFPEPVTVSWNSGALTSGVHTFPAVLQSSGLYSLSSVVTVPSSSLGTQTYICNVNHKPSNTKVDKKVEPKSCGGGGSGGGGSGGGGSGGGGSQAVVTQEPSLTVSPGGTVTLTCRSSTGAVTTSNYANWVQQKPGQAPRGLIGGTNKRAPWTPARFSGSLLGGKAALTITGAQAEDEADYYCALWYSNLWVFGGGTKLTVLGGGGSDKTHTCPPCPAPELLGPSVFLFPPKPKDTLMISRTPEVTCVVVDVSHEDPEVKFNWYVDGVEVHNAKTKPREEQYNSTYRVVSVLTVLHQDWLNGKEYKCKVSNKALGAPIEKTISKAKGQPREPQVYTLPPSREEMTKNQVSLSCAVKGFYPSDIAVEWESNGQPENNYKTTPPVLDSDGSFFLVSKLTVDKSRWQQGNVFSCSVMHEALHNRFTQKSLSLSPGKGGGGSGGGGSGGGGSGGGGSDIQMTQSPSSLSASVGDRVTITCRASQDIRSNLNWYQQKPGGAVKLLIYYTSRLHSGVPSRFSGSGSGTDYTLTISSLQPEDFATYFCQQSEKLPRTFGGGTKVEIR
chain 3: QIVLSQSPAILSASPGEKVTMTCRASSSVSYIHWFQQKPGSSPKPWIYATSNLASGVPVRFSGSGSGTSYSLTISRVEAEDAATYYCQQWTSNPPTFGGGTKLEIKSSASTKGPSVFPLAPSSKSTSGGTAALGCLVKDYFPEPVTVSWNSGALTSGVHTFPAVLQSSGLYSLSSVVTVPSSSLGTQTYICNVNHKPSNTKVDKKVEPKSC
chain 4: not shown
notes: CD19/CD20/CD3/CD137
Consider B3, for which the binding result with CD137 and with CD19 was “binds” throughout.
